Consider one molecule from article doi:10.1101/563890 (bioRxiv, 2019).

The target of the assay is CXCL12 (UniProt P48061-2 22-89). Briefly: MST.
CXCL12, sequence (P48061 22-89): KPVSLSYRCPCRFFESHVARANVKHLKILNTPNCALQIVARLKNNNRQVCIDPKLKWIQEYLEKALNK

B1: 6His-tagged full-length HMGB1 (residues 1-214), labelled with NT647 (natural protein, UniProt P63159 1-215, looked up)
chain: MGKGDPKKPRGKMSSYAFFVQTCREEHKKKHPDASVNFSEFSKKCSERWKTMSAKEKGKFEDMAKADKARYEREMKTYIPPKGETKKKFKDPNAPKRPPSAFFLFCSEYRPKIKGEHPGLSIGDVAKKLGEMWNNTAADDKQPYEKKAAKLKEKYEKDIAAYRAKGKPDAAKKGVVKAEKSKKKKEEEDDEEDEEDEEEEEEEEDEDEEEDDDDE
modifications: non-covalently labelled with the NT647 fluorescence dye
Consider B1, for which binding was put at a Kd of 4 ± 0.4 µM.
